B1: Bacillus subtilis acetyltransferase AcuA (enzyme, UniProt P39065 1-210, looked up)
chain: MEHHKTYHSANIKTATGSLLIEGPVSPEDLAGYEFHKDLTAFRPPREQHEALVDIAGLPEGRIIIARDGRTIVGYVTYLYPDPLERWSEGNMEDLIELGAIEVAPDYRGCAVGKTLLTVSMMDEQMENYIVMTTEYYWHWDLKGMKKDVWEYRKIMEKMMNAGGLVWFATDEPEISSHPANCLMARIGKNVSQESIEQFDRLRFYHRYMY
notes: GNAT-related lysine acetyltransferase AcuA, Bacillus subtilis, UniProt P39065; synthetic gene codon optimized for E. coli; also called AcuA wildtype; AcuA WT; source: E. coli BL21 (DE3), pET45b(+), purified (HisTrap FF, Ni2+)

What was measured:
[1] = target: T1, AcsA from Chloroflexota bacterium (Chloroflexota bacterium, UniProt Z9YKO5Y7U4); assay: X-ray crystallography; type: binding; conditions: product of the first half-reaction; thioester-forming conformation
T1 construct: monomer in solution and crystal; expression and tag not described; His476 found phosphorylated
T1 sequence (Z9YKO5Y7U4 9-657): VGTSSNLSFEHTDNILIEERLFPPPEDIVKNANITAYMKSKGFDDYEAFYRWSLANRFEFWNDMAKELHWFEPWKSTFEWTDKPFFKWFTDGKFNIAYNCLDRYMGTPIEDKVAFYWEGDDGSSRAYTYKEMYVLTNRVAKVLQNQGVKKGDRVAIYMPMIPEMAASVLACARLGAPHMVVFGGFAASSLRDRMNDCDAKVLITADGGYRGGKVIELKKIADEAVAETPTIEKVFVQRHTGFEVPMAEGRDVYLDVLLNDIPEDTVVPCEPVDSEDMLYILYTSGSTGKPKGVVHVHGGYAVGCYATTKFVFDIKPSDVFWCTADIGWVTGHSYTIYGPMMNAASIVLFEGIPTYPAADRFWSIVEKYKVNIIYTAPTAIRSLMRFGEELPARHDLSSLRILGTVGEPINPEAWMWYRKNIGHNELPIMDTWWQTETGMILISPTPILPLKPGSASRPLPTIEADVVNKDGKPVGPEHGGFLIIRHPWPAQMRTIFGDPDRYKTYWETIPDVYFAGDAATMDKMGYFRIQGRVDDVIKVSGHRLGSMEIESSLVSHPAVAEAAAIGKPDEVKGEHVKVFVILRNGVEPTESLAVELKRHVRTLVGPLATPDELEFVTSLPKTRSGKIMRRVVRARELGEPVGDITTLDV

[2] = target: Bacillus subtilis AMP-forming acetyl-CoA synthetase AcsA (Bacillus subtilis) (UniProt P39062); assay: SEC; analytical SEC of equimolar AcsA and AcuA (wild type or mutants), incubated 30 min at room temperature, Superdex 200 10/300 GL, 50 mM Tris/HCl pH 8, 50 mM KCl, 2 mM β-mercaptoethanol; 100 µl of 50–100 µM; without ligand or with a tenfold molar excess of CoA or AcP alone
AcsA V477A = target: T2, AcsA V477A (Bacillus subtilis, UniProt P39062 1-572, V477A); assay: as above; conditions: both partners purified
T2 construct: AcsA, Bacillus subtilis, UniProt P39062, with V477A
T2 sequence (looked up): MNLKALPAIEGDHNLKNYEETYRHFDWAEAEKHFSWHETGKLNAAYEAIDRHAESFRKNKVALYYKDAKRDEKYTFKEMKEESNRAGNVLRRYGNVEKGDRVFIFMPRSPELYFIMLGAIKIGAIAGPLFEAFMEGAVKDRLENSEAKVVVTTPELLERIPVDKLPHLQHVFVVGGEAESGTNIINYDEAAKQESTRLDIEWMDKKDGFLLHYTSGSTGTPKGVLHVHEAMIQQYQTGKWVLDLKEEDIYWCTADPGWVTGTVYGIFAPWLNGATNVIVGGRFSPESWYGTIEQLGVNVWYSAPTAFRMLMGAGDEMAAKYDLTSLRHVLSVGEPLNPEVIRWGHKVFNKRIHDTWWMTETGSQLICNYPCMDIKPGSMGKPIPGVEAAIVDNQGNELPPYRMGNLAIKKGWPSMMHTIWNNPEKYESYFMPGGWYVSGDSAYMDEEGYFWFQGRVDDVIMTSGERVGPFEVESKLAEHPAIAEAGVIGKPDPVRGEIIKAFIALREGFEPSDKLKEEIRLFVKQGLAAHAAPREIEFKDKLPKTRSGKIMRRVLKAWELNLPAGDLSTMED

AcsA K549Q = target: T3, AcsA K549Q (Bacillus subtilis, UniProt P39062 1-572, K549Q); assay: as above; conditions: both partners purified
T3 construct: AcsA, Bacillus subtilis, UniProt P39062, with K549Q; also called acetylation-mimetic mutant AcsA K549Q
T3 sequence (looked up): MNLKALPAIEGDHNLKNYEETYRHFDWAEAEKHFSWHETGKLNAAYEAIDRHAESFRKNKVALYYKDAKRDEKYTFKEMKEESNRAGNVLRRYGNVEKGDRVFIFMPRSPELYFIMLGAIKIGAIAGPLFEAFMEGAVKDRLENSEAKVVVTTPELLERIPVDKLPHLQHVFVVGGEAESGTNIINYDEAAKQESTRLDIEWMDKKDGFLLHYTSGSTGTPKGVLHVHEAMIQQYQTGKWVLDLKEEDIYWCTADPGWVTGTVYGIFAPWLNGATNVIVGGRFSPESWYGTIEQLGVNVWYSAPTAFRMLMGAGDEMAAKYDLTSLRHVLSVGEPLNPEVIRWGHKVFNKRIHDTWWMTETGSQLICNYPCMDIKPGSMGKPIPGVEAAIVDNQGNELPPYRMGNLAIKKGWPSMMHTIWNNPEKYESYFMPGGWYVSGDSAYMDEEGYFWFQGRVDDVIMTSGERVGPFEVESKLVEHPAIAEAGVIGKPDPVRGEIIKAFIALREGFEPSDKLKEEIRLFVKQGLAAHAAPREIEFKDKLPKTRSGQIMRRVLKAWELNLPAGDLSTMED

AcsA K549R = target: T4, AcsA K549R (Bacillus subtilis, UniProt P39062 1-572, K549R); assay: as above; conditions: both partners purified
T4 construct: AcsA, Bacillus subtilis, UniProt P39062, with K549R; also called non-acetylated mutant AcsA K549R
T4 sequence (looked up): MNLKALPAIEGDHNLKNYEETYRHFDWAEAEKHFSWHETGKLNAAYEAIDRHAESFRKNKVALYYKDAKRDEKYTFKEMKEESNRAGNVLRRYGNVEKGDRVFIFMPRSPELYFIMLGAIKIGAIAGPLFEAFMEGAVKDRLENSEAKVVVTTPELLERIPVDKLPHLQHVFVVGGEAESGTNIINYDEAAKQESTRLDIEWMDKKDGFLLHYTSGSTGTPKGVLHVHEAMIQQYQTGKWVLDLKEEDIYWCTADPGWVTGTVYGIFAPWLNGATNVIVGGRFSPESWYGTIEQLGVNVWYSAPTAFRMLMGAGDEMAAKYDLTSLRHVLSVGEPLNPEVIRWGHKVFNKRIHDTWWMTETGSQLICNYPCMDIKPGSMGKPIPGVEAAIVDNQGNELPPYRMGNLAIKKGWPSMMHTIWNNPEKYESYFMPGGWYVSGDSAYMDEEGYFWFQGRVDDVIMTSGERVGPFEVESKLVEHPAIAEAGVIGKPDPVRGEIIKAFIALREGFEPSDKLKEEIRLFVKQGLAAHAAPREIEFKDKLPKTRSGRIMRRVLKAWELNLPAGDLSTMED

AcsA E473A = target: T5, AcsA E473A (Bacillus subtilis, UniProt P39062 1-572, E473A); assay: as above; conditions: both partners purified
T5 construct: AcsA, Bacillus subtilis, UniProt P39062, with E473A
T5 sequence (looked up): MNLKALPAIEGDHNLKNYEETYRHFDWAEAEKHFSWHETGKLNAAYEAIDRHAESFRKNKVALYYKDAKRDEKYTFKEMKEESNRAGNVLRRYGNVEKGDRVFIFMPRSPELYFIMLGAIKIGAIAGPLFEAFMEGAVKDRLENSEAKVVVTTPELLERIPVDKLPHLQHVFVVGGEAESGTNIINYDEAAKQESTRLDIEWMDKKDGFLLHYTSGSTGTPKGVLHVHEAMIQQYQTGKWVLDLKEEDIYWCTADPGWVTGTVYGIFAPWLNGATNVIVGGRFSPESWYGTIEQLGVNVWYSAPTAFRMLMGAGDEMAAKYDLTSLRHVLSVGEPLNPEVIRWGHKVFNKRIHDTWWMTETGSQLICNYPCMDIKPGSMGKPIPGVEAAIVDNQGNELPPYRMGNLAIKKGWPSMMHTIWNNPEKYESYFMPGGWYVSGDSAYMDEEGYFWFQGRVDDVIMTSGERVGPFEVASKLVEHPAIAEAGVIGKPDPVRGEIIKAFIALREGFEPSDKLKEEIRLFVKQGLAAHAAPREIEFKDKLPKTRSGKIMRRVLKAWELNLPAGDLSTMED

Molecule	X-ray crystallography [1]	stoichiometry N (AcuA per AcsA (2:2)) [2]	binding result (AcsA V477A)	binding result (AcsA K549Q)	binding result (AcsA K549R)	binding result (AcsA E473A)
CC(=O)OP(=O)(O)OC[C@H]1O[C@@H](n2cnc3c(N)ncnc32)[C@H](O)[C@@H]1O [acetyl-AMP]	structure solved in complex with acetyl-AMP, i.e. the product of the first half-reaction	–	–	–	–	–
B1	–	1	binds	binds	binds	binds
